Reference: patent CN110563849A

Molecular target: PD-1-mFc (人PD-1胞外区加Fc纯化标签) (human) (UniProt Q15116)
Assay: ELISA of the subclone's supernatant on plate-coated PD-1 antigen

Chain of UniProt Q15116 (Q15116 25-170): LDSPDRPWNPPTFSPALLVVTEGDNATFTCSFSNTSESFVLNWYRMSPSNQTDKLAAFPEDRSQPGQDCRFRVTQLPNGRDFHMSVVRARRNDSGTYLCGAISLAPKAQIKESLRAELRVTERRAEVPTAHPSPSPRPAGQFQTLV

B1: 抗PD-1鼠源单克隆抗体 (阳性克隆2G8-1N8) (antibody, V domains shown)
VH: EVKLVESGGGLVKPGGSLKLSCAASGFTFSSYGMSWVRQTPEKRLEWVATISGGGSYTYYPDSVKGRFTISRDNAKNNLYLQMSSLRSEDTALYYCASRFGEAWFAYWGQGTLVTVSA
VL: DIKMTQSPSSMYASLGERVTITCKASQDINSYLSWFQQKPGKSPKTLIYRANRLVDGVPSRFSGSGSGQDYSLTISSLEYEDMGIYYCLQYDEFPLTFGAGTKLELK
  OD值: 1.02 OD
